# Assay results from PMC11026450 (Scientific Reports, 2024).
# B1: human c-RAF peptide 123 (H611–H630) (peptide, UniProt P04049 611-630, looked up)
# peptide: HSLPKINRSASEPSLHRAAH
# notes: c-RAF, human, 20mer of the peptide array, residues H611–H630; source: synthetic peptide, SPOT synthesis on cellulose membrane
# B2: human c-RAF peptide 117 (M581–P600) (peptide, UniProt P04049 581-600, looked up)
# peptide: MKRLVADCVKKVKEERPLFP
# notes: c-RAF, human, 20mer of the peptide array, residues M581–P600; source: synthetic peptide, SPOT synthesis on cellulose membrane
# B3: human c-RAF peptide 49 (N241–T260) (peptide, UniProt P04049 241-260, looked up)
# peptide: NTSSPSSEGSLSQRQRSTST
# notes: c-RAF, human, 20mer of the peptide array, residues N241–T260; source: synthetic peptide, SPOT synthesis on cellulose membrane
# B4: human c-RAF peptide 8 (F36–S55) (peptide, UniProt P04049 36-55, looked up)
# peptide: FGYQRRASDDGKLTDPSKTS
# notes: c-RAF, human, 20mer of the peptide array, residues F36–S55; source: synthetic peptide, SPOT synthesis on cellulose membrane
# Key:
# [1] = system: PANC1 spheroids; assay: 3D-spheroid growth assay, PANC1; format: cell-based, human; settings: 3D floating PANC1 spheroids, 0.5 µM, treated day 0, 2, 4, 7, 9 over 10 days; vs vehicle [0.2% DMSO] and DRx-150 [10 µM]; n = 5
# Method: PANC1 cells were seeded at 2 × 10^3 in wells of a round bottom Nunclon™ Sphera™ 96 well-plate with ultra-low attachment coating (Thermo; #174925), containing 200 μL DMEM (2% FBS, 2 mM L-glutamine, 100 U/I Pen-Strep). To encourage spheroid formation, PANC1 cells were centrifuged at 250 × g for 10 min at room temperature. PANC1 spheroids were then allowed to grow for 3 days at 37 °C, 5% CO2, humidified air. Spheroids were then treated with appropriate concentration of DRx-peptide/afatinib by first removing 100 μL of media from each well (careful not to disturb spheroid), followed by addition of 100 μL drug at 2× concentration. Cells were treated five times over a 10 day period (day 0, 2, 4, 7 and 9). Spheroids were imaged on day 0, 2, 4, 7 and 10 using a Nikon Eclipse TS2 microscope and spheroid area quantified using Image J software. Data represented as a fold-difference of relative day 0 spheroid measurement (i.e., day 0 normalised to 1).
# [2] = target: T1, full-length human PDE8A1-MBP (human, UniProt O60658-1 1-829); assay: peptide or protein array; human c-RAF 20mer peptides SPOT-synthesised on cellulose membrane; far western approach: 0.1 μM PDE8A1-MBP overnight at 4 °C in 1x TBS, 5% glycerol, pH 7.4; detected with αMBP-HRP and ECL; MBP alone as negative control; signal normalised to the strongest binding peptide; settings: both partners purified
# T1 construct: Phosphodiesterase 8A, isoform PDE8A1, human, full length; the tag was detected with an anti-MBP-HRP antibody (Abcam ab49923); also called human recombinant PDE8A1-MBP; source: recombinant
# T1 sequence (O60658 whole entry, canonical isoform): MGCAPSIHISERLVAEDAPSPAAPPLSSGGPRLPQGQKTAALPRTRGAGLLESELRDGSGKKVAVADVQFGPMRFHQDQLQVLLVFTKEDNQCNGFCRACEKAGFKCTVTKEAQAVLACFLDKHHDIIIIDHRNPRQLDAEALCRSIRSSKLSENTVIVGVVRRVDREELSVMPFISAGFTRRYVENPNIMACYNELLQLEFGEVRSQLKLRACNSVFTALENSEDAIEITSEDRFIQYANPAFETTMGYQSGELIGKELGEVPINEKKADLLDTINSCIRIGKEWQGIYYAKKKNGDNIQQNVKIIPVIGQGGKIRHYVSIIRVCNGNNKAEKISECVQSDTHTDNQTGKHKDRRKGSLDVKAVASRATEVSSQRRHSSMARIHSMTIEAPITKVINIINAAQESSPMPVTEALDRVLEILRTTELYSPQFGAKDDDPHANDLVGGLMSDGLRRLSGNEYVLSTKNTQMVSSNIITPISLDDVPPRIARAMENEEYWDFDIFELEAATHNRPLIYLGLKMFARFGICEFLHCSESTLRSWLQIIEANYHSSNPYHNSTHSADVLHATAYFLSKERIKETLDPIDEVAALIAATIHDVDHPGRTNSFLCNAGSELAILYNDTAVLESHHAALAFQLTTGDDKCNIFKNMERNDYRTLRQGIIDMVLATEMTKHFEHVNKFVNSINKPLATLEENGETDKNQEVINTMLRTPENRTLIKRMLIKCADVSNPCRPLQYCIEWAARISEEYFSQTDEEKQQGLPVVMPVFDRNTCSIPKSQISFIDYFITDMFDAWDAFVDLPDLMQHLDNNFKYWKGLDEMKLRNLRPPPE
molecule,measurement,setting,value
"CN(C)C/C=C/C(=O)Nc1cc2c(Nc3ccc(F)c(Cl)c3)ncnc2cc1O[C@H]1CCOC1 [afatinib, afatinib dimaleate]",relative spheroid area (fold-difference vs. Day 0),[1],significantly attenuated
B1,binding result,[2],binds
B2,binding result,[2],binds
B3,binding result,[2],binds
B4,binding result,[2],binds
